Laboratory results reported in the RNAGym collection of RNA variant scans (doi:10.7554/elife.80360).

B1: Twister Ribozyme (parent)
chain: AACACUGCCAAUGCCGGUCCCAAGCCCGGAUAAAAGUGGAGGGGGCGG

Variants of: B1
Assay: self-cleavage, relative activity (ratio to wild type); higher = more cleavage; co-transcriptional

| Variant | self-cleavage |
| --- | --- |
| U6G C9G | 0.171 |
| U6G C9U | 0.163 |
| U6G A23U | 0.0909 |
| G7C C26G | 0.0717 |
| G7C C26A | 0.0601 |
| U6C G42U | 0.107 |
| U6C G42C | 0.11 |
| G7A G43C | 0.123 |
| G7A G43A | 0.176 |
| G7C G36C | 0.0549 |
| G7C A10C | 0.0829 |
| G7C A10U | 0.0545 |
| G7C A10G | 0.0662 |
| C8A U31G | 0.57 |
| U6G G7C | 0.873 |
| G7A G47C | 0.185 |
| G7A G47U | 0.19 |
| G7C G17U | 0.0545 |
| G7A U37G | 0.162 |
| G7A U37A | 0.144 |
| G7A U37C | 0.111 |
| G7A G41U | 0.11 |
| U6G A22U | 0.136 |
| G7C U12C | 0.0838 |

| Variant | self-cleavage |
| --- | --- |
| G7C C9G | 0.0747 |
| G7C C9U | 0.101 |
| G7A C14G | 0.0811 |
| G7A C14U | 0.43 |
| G7C G24A | 0.0629 |
| C8A U12A | 0.475 |
| C8A C21U | 0.107 |
| G7C C19G | 0.0745 |
| C8A C26U | 0.098 |
| G7U C25U | 0.302 |
| G7U C25A | 0.224 |
| C8A G24U | 0.841 |
| C8A G24C | 0.31 |
| G7A A10G | 0.982 |
| G7A A10C | 0.459 |
| G7A A10U | 0.505 |
| G7U C20A | 0.0332 |
| G7A G42U | 0.136 |
| G7U G45A | 0.0748 |
| G7U G45U | 0.087 |
| U6G G43U | 0.184 |
| U6G G45U | 0.129 |
| U6G G45C | 0.104 |
| G7U G13A | 0.0636 |

| Variant | self-cleavage |
| --- | --- |
| G7U G13C | 0.0504 |
| G7A G39A | 0.171 |
| G7A G39C | 0.141 |
| G7A G39U | 0.15 |
| G7U G28A | 0.0571 |
| G7A A33G | 0.243 |
| G7A A33C | 0.211 |
| C8A A22U | 0.127 |
| C8A G38U | 0.169 |
| C8A G28C | 0.159 |
| C8A G28U | 0.22 |
| G7A A11C | 0.0895 |
| U6G G36C | 0.0766 |
| U6G G36U | 0.0341 |
| G7C U37C | 0.0652 |
| G7U A10C | 0.117 |
| G7U U37A | 0.0497 |
| C8A C27U | 0.101 |
| C8A G44A | 0.555 |
| G7U G44A | 0.19 |
| G7U G44U | 0.0819 |
| G7C G29C | 0.0533 |
| G7C G29A | 0.0857 |
| U6G C20G | 0.0753 |

| Variant | self-cleavage |
| --- | --- |
| U6G C20U | 0.236 |
| U6G C20A | 0.0634 |
| U6C U18G | 0.0358 |
| U6C U18C | 0.0688 |
| C8A A35U | 0.477 |
| C8A A35G | 0.226 |
| C8A A35C | 0.405 |
| G7A U31C | 0.451 |
| G7A U31G | 0.647 |
| U6G A33U | 0.234 |
| U6G A33G | 0.199 |
| G7C G45U | 0.0816 |
| G7U G29C | 0.0397 |
| G7U G29A | 0.0635 |
| C8A G36C | 0.145 |
| C8A G36A | 0.101 |
| G7U C15A | 0.0847 |
| U6C G43U | 0.134 |
| U6C G43C | 0.128 |
| U6C G43A | 0.0844 |
| C8A G13U | 0.261 |
| C8A G13A | 0.359 |
| G7C G13C | 0.0439 |
| G7C G13A | 0.0687 |

| Variant | self-cleavage |
| --- | --- |
| G7A G44A | 0.619 |
| G7A G44U | 0.422 |
| G7A G44C | 0.322 |
| U6G G47U | 0.151 |
| C8A G47U | 0.156 |
| C8A G47C | 0.169 |
| C8A G47A | 0.26 |
| G7U C26G | 0.0462 |
| G7U C26A | 0.0629 |
| G7U A23U | 0.0674 |
| C8A G16U | 0.144 |
| U6G U31C | 0.365 |
| U6G U31A | 0.169 |
| G7C A22C | 0.0571 |
| U6C G29U | 0.371 |
| U6C G29A | 0.34 |
| G7U A34G | 0.0851 |
| G7U A34C | 0.0467 |
| C8G A23G | 0.0516 |
| C8G A23U | 0.103 |
| U6C G38U | 0.282 |
| U6C G36U | 0.0917 |
| U6C G36A | 0.136 |
| G7U G47C | 0.0954 |

| Variant | self-cleavage |
| --- | --- |
| G7U G47U | 0.0775 |
| U6G G48A | 0.24 |
| U6G G48C | 0.358 |
| U6G G38U | 0.223 |
| G7U A11U | 0.0842 |
| G7U A11C | 0.0886 |
| U6C G7C | 0.0439 |
| U6G U18C | 0.131 |
| U6G U18A | 0.0684 |
| G7U A30U | 0.0836 |
| G7U A30C | 0.0485 |
| G7C G44U | 0.0818 |
| G7C G44A | 0.0625 |
| U6G C15G | 0.0391 |
| G7A A23C | 0.0662 |
| G7A A23U | 0.12 |
| C8A C19U | 0.107 |
| C8A C19A | 0.0947 |
| U6C G13U | 0.0523 |
| U6C G13C | 0.107 |
| U6C G13A | 0.0845 |
| G7A G45U | 0.177 |
| G7U C9U | 0.0542 |
| C8G A10U | 0.429 |

| Variant | self-cleavage |
| --- | --- |
| G7C A34C | 0.118 |
| G7C A34G | 0.061 |
| G7C A34U | 0.067 |
| G7U G42U | 0.0886 |
| G7U A33U | 0.109 |
| G7C G48C | 0.0656 |
| G7C C25G | 0.218 |
| G7C C25A | 0.0795 |
| G7A A22C | 0.519 |
| G7A A22G | 0.0675 |
| G7A A22U | 0.103 |
| G7A A35U | 0.546 |
| G7A A35G | 0.123 |
| U6G C14U | 0.608 |
| G7C C8G | 0.0684 |
| G7C C8U | 0.0597 |
| G7A C26G | 0.0601 |
| G7A C26U | 0.102 |
| G7A G28U | 0.28 |
| G7A G29C | 0.12 |
| G7A G29U | 0.339 |
| C8A U18C | 0.0479 |
| G7U A32U | 0.101 |
